# Results taken from patent publication US8840891 (RSR, dated 2014).
# Like-named read-outs stand apart in the source and are kept apart here.
# How the values were obtained:
# Experiment in all cases: cell-based or functional assay
# [1] = biological target: wild type human TSHR (human) (UniProt P16473)
# [2] = biological target: TSHR with Arg255 mutated to Alanine (human) (UniProt P16473)
# [3] = biological target: wild type human TSHR (human) (UniProt P16473); remark: listed apart in the source
# [4] = biological target: wild type human TSHR (human) (UniProt P16473); remark: listed apart in the source
# [5] = biological target: TSHR with Ser281 mutated to Alanine (human) (UniProt P16473)
# [6] = biological target: TSHR with Lys183 mutated to Aspartic acid (human) (UniProt P16473)
# [7] = biological target: wild type human TSHR (human) (UniProt P16473); remark: listed apart in the source
# [8] = biological target: wild type human TSHR (human) (UniProt P16473); remark: listed apart in the source
# [9] = biological target: TSHR with Arg80 mutated to Alanine (human) (UniProt P16473)
# [10] = biological target: wild type human TSHR (human) (UniProt P16473); remark: listed apart in the source
# [11] = biological target: TSHR with Arg109 mutated to Alanine (human) (UniProt P16473)
# Sequence of 5C9 IgG (antibody) (VH): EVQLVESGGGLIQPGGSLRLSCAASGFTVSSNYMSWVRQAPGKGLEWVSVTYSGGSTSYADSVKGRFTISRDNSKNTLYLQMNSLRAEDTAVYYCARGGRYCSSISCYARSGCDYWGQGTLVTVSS
# Sequence of 5C9 IgG (antibody) (VL): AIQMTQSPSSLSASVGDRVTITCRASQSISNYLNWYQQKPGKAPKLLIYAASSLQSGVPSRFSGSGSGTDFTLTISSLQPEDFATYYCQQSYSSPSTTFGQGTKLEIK
substance,measurement,setting,value
5C9 IgG (antibody),cyclic AMP; 5C9 0.01 µg/mL + M22 (fmol/cell well),[1],16700
same,cyclic AMP; 5C9 0.1 µg/mL + M22 (fmol/cell well),[1],9380
same,cyclic AMP; 5C9 1.0 µg/mL + M22 (fmol/cell well),[1],821
same,cyclic AMP; 5C9 10 µg/mL + M22 (fmol/cell well),[1],208
same,cyclic AMP; 5C9 100 µg/mL + M22 (fmol/cell well),[1],301
same,cyclic AMP; 5C9 100 µg/mL only (fmol/cell well),[1],429
same,Mutated/wild type (%); 5C9 0.01 µg/mL + TSH,[2],123%
same,Mutated/wild type (%); 5C9 0.1 µg/mL + TSH,[2],109%
same,Mutated/wild type (%); 5C9 1.0 µg/mL + TSH,[2],201%
same,Mutated/wild type (%); 5C9 10 µg/mL + TSH,[2],80%
same,Mutated/wild type (%); 5C9 100 µg/mL + TSH,[2],80%
same,Mutated/wild type (%); 5C9 100 µg/mL only,[2],775%
same,cyclic AMP; 5C9 0.01 µg/mL + TSH (fmol/cell well),[2],8120
same,cyclic AMP; 5C9 0.1 µg/mL + TSH (fmol/cell well),[2],4140
same,cyclic AMP; 5C9 1.0 µg/mL + TSH (fmol/cell well),[2],1940
same,cyclic AMP; 5C9 10 µg/mL + TSH (fmol/cell well),[2],692
same,cyclic AMP; 5C9 100 µg/mL + TSH (fmol/cell well),[2],809
same,cyclic AMP; 5C9 100 µg/mL only (fmol/cell well),[2],248
same,cyclic AMP; 5C9 0.01 µg/mL + TSH (fmol/cell well),[3],6620
same,cyclic AMP; 5C9 0.1 µg/mL + TSH (fmol/cell well),[3],3790
same,cyclic AMP; 5C9 1.0 µg/mL + TSH (fmol/cell well),[3],966
same,cyclic AMP; 5C9 10 µg/mL + TSH (fmol/cell well),[3],867
same,cyclic AMP; 5C9 100 µg/mL + TSH (fmol/cell well),[3],1010
same,cyclic AMP; 5C9 100 µg/mL only (fmol/cell well),[3],32
same,cyclic AMP; 5C9 0.01 µg/mL + TSH (fmol/cell well),[4],13800
same,cyclic AMP; 5C9 0.1 µg/mL + TSH (fmol/cell well),[4],9070
same,cyclic AMP; 5C9 1.0 µg/mL + TSH (fmol/cell well),[4],3730
same,cyclic AMP; 5C9 10 µg/mL + TSH (fmol/cell well),[4],802
same,cyclic AMP; 5C9 100 µg only (fmol/cell well),[4],201
same,cyclic AMP; 5C9 100 µg/mL + TSH (fmol/cell well),[4],1080
same,Mutated/wild type (%); 5C9 0.01 µg/mL + TSH,[5],210%
same,Mutated/wild type (%); 5C9 0.1 µg/mL + TSH,[5],172%
same,Mutated/wild type (%); 5C9 1.0 µg/mL + TSH,[5],95%
same,Mutated/wild type (%); 5C9 10 µg/mL + TSH,[5],193%
same,Mutated/wild type (%); 5C9 100 µg only,[5],391%
same,Mutated/wild type (%); 5C9 100 µg/mL + TSH,[5],149%
same,cyclic AMP; 5C9 0.01 µg/mL + TSH (fmol/cell well),[5],29000
same,cyclic AMP; 5C9 0.1 µg/mL + TSH (fmol/cell well),[5],15600
same,cyclic AMP; 5C9 1.0 µg/mL + TSH (fmol/cell well),[5],3550
same,cyclic AMP; 5C9 10 µg/mL + TSH (fmol/cell well),[5],1550
same,cyclic AMP; 5C9 100 µg only (fmol/cell well),[5],785
same,cyclic AMP; 5C9 100 µg/mL + TSH (fmol/cell well),[5],1600
same,Mutated/wild type (%); 5C9 0.01 µg/mL + TSH,[6],160%
same,Mutated/wild type (%); 5C9 0.1 µg/mL + TSH,[6],202%
same,Mutated/wild type (%); 5C9 1.0 µg/mL + TSH,[6],370%
same,Mutated/wild type (%); 5C9 10 µg/mL + TSH,[6],591%
same,Mutated/wild type (%); 5C9 100 µg/mL + TSH,[6],524%
same,cyclic AMP; 5C9 0.01 µg/mL + TSH (fmol/cell well),[6],20600
same,cyclic AMP; 5C9 0.1 µg/mL + TSH (fmol/cell well),[6],17300
same,cyclic AMP; 5C9 1.0 µg/mL + TSH (fmol/cell well),[6],12700
same,cyclic AMP; 5C9 10 µg/mL + TSH (fmol/cell well),[6],6590
same,cyclic AMP; 5C9 100 µg/mL + TSH (fmol/cell well),[6],9010
same,cyclic AMP; 5C9 100 µg/mL only (fmol/cell well),[6],54
same,cyclic AMP; 5C9 0.01 µg/mL + TSH (fmol/cell well),[7],12900
same,cyclic AMP; 5C9 0.1 µg/mL + TSH (fmol/cell well),[7],8580
same,cyclic AMP; 5C9 1.0 µg/mL + TSH (fmol/cell well),[7],3420
same,cyclic AMP; 5C9 10 µg/mL + TSH (fmol/cell well),[7],1110
same,cyclic AMP; 5C9 100 µg/mL + TSH (fmol/cell well),[7],1720
same,cyclic AMP; 5C9 100 µg/mL only (fmol/cell well),[7],< 12.5
same,cyclic AMP; 5C9 0.01 µg/mL + TSH (fmol/cell well),[8],14400
same,cyclic AMP; 5C9 0.1 µg/mL + TSH (fmol/cell well),[8],11300
same,cyclic AMP; 5C9 1.0 µg/mL + TSH (fmol/cell well),[8],6700
same,cyclic AMP; 5C9 10 µg/mL + TSH (fmol/cell well),[8],2110
same,cyclic AMP; 5C9 100 µg/mL + TSH (fmol/cell well),[8],2230
same,cyclic AMP; 5C9 100 µg/mL only (fmol/cell well),[8],244
same,Mutated/wild type (%); 5C9 0.01 µg/mL + TSH,[9],99%
same,Mutated/wild type (%); 5C9 0.1 µg/mL + TSH,[9],82%
same,Mutated/wild type (%); 5C9 1.0 µg/mL + TSH,[9],20%
same,Mutated/wild type (%); 5C9 10 µg/mL + TSH,[9],55%
same,Mutated/wild type (%); 5C9 100 µg/mL + TSH,[9],23%
same,Mutated/wild type (%); 5C9 100 µg/mL only,[9],202%
same,cyclic AMP; 5C9 0.01 µg/mL + TSH (fmol/cell well),[9],14300
same,cyclic AMP; 5C9 0.1 µg/mL + TSH (fmol/cell well),[9],9280
same,cyclic AMP; 5C9 1.0 µg/mL + TSH (fmol/cell well),[9],1360
same,cyclic AMP; 5C9 10 µg/mL + TSH (fmol/cell well),[9],1160
same,cyclic AMP; 5C9 100 µg/mL + TSH (fmol/cell well),[9],518
same,cyclic AMP; 5C9 100 µg/mL only (fmol/cell well),[9],494
same,cyclic AMP; 5C9 0.01 µg/mL + TSH (fmol/cell well),[10],10800
same,cyclic AMP; 5C9 0.1 µg/mL + TSH (fmol/cell well),[10],4010
same,cyclic AMP; 5C9 1.0 µg/mL + TSH (fmol/cell well),[10],1210
same,cyclic AMP; 5C9 10 µg/mL + TSH (fmol/cell well),[10],706
same,cyclic AMP; 5C9 100 µg/mL + TSH (fmol/cell well),[10],1230
same,cyclic AMP; 5C9 100 µg/mL only (fmol/cell well),[10],228
same,Mutated/wild type (%); 5C9 0.01 µg/mL + TSH,[11],89%
same,Mutated/wild type (%); 5C9 0.1 µg/mL + TSH,[11],43%
same,Mutated/wild type (%); 5C9 1.0 µg/mL + TSH,[11],69%
same,Mutated/wild type (%); 5C9 10 µg/mL + TSH,[11],117%
same,Mutated/wild type (%); 5C9 100 µg/mL + TSH,[11],46%
same,Mutated/wild type (%); 5C9 100 µg/mL only,[11],147%
same,cyclic AMP; 5C9 0.01 µg/mL + TSH (fmol/cell well),[11],9650
same,cyclic AMP; 5C9 0.1 µg/mL + TSH (fmol/cell well),[11],1720
same,cyclic AMP; 5C9 1.0 µg/mL + TSH (fmol/cell well),[11],827
same,cyclic AMP; 5C9 10 µg/mL + TSH (fmol/cell well),[11],827
same,cyclic AMP; 5C9 100 µg/mL + TSH (fmol/cell well),[11],561
same,cyclic AMP; 5C9 100 µg/mL only (fmol/cell well),[11],335
